Test results: patent publication US20130309233A1 (SORRENTO THERAPEUTICS, published 2013)
Where a chain is given by its changes, count along the chain named.

B1: A6 (antibody, IgG1, V domains shown)
VH: QVQLVQSGAEVKKPGSSVKVSCKASGGTFRNHAFSWVRQAPGQGLEWMGWISAYNGYTHYAEKLQGRVTMTTDTSTSTAYMELRSLRSDDTAVYYCARVSASYNSDWSLHYYYGMDVWGQGTTVTVSS
VL: QSVLTQPPSVSAAPGQEVTISCSGSNSNIGNNYVSWYQQLPGTAPKLLIYDNNERPSGIPDRFSGSKSGTSATLGITGLQTGDEADYYCGTWDSSLSAGVFGGGTKLTVL
notes: also called EGFR-A6; Clone A6
B2: A6-A4 (antibody, V domains shown)
VH: B1 VH with F34Y, H59T, E62S, T123L
VL: B1 VL with G30E, D51S, W92F, G99V
B3: A6-A7 (antibody, V domains shown)
VH: B1 VH with F34Y, S102E, L109V, T123L
VL: B1 VL with N31P, G90S, W92F, G99A
B4: A6-A1 (antibody, V domains shown)
VH: QVQLVQSGAEVKKPGSSVKVSCKASGGTFRNHAWSWVRQAPGQGLEWMGWISAYNGYTHYASKLQGRVTMTTDTSTSTAYMELRSLRSDDTAVYYCARVSAEYAEDWSLHYYYMDVWGQGTLVTVSS
VL: B1 VL with G90S, G99V
B5: A6-A3 (antibody, V domains shown)
VH: B1 VH with F34W, H59T, E62S, S105E, T123L
VL: B1 VL with G30E, N31P, D51S, N52T, N53A, G90S, G99V
B6: A6-A5 (antibody, V domains shown)
VH: B1 VH with F34Y, E62S, N104A, T123L
VL: B1 VL with N52T, N53A, G90S, G99V, V100L
B7: A6-A8 (antibody, V domains shown)
VH: B1 VH with F34Y, H59T, S102E, N104A, S105E, T123L
VL: B1 VL with G30P, D51S, N53S, G90S, G99A, V100L
B8: D2 GB8 (antibody, V domains shown)
VH: EVQLVESGGGVVQPGRSLRLSCAASGFIFHHYAMHWVRQAPGKGLEWVAHISPDGSYKFYADSVKGRFTVSRDNSKNTLYLQMNSLRAEDTAVYYCARFTEVLYYGADIWGQGTLVTVSS
VL: QSVLTQPPSVSEAPRQRVSISCSGSSSNIGNNAVNWYQQLPGKAPKLLIYYDDLLPSGVSNRFSGSKSGTSASLAISGLQSEDEADYYCAAWDDSLKGYVFGTGTKVTVL
B9: D2GA4 (antibody, V domains shown)
VH: B8 VH with P53S, Y57S, I109L
VL: B8 VL with N31D, L55H, N61D
B10: D2 (antibody, IgG1, V domains shown)
VH: B8 VH with H30N, P53S, K76D, L79V, R87G, A88P, Y95H, I109Y
VL: B8 VL with Y51F, N61D
notes: also called EGFR-D2; Clone D2
B11: D2GA2 (antibody, V domains shown)
VH: B8 VH with Y57S
VL: B8 VL with Y51F, N61D
B12: D2GG1 (antibody, V domains shown)
VH: B8 VH with I28T, H30S, P53L, Y57S, I109L
VL: B8 VL with N61D
B13: D2GA5 (antibody, V domains shown)
VH: B8 VH with P53I, Y57S, I109L
VL: B8 VL with N61D
B14: D2GA6 (antibody, V domains shown)
VH: B8 VH with Y57S
VL: B8 VL with Y51F, S57Q, N61D
B15: D2GC1 (antibody, V domains shown)
VH: B8 VH with Y57S, I109L
VL: B8 VL with N61D
B16: D2GC4 (antibody, V domains shown)
VH: B8 VH with A33S, P53S, Y57S, I109L
VL: QSVLTQPPSVSEAPRQRVSISCSGSSSNIGNNAVNWYQQLPGKAPKLLIYYDDLLPSGVSDRFSGSKSGTSASLAISGLQSEDEADYYCAAWDDSLKGYVFGTGTKVTV
B17: D6 (antibody, IgG1, V domains shown)
VH: EVQLVQSGAEVKKPGSAVKVSCKASGGTFSSYAISWVRQAPGQGLEWMGGIIPILGTADYAQKFQGRVTITADESTSTAYMELSSLRSEDTAVYYCARDEIPLEYCTSTSCYHAFDIWGRGTMVTVSS
VL: AIQLTQSPSTLSASVGDRVTITCRASQSISSWLAWYQQKPGKAPKLLIYAASSLQSGVPSRFSGSGSGTDFTLTISSLQPEDFATYYCQQSYSTPLTFGGGTKVEIK
notes: also called EGFR-D6
B18: B4 (antibody, IgG1, V domains shown)
VH: B17 VH with E1Q, R120Q
VL: NIQMTQSPPSLSAFVGDRVTITCQASQAINNYLNWYQQKPGKAPKLLIYDASNLETGVPSRFSGSGSGTDFTFTISSLQPEDNATYYCQQYDKLPLTFGGGTKVEIK
notes: also called EGFR-B4
B19: B1 (antibody, IgG1, V domains shown)
VH: B8 VH with E1Q, E6Q, H30N, P53S, K76D, L79V, R87G, A88P, Y95H, I109Y
VL: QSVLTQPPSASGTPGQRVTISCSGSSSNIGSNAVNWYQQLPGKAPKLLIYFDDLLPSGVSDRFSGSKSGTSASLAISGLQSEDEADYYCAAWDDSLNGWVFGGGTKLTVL
B20: A5 (antibody, IgG1, V domains shown)
VH: B17 VH with S16A, A17S, R120Q
VL: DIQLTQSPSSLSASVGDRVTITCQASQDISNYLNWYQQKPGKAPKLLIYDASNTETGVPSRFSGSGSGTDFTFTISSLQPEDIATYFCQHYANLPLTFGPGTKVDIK
B21: B5 (antibody, IgG1, V domains shown)
VH: QMQLVQSWAEVKKPGASVKVSCKASAYTFTNYYIHWVRQAPGQGLEWMGIINPSSGATTYAQRLQGRVIMTRDTSTSTVNMELSSLRSEDTAVYYCARSTLWFSEFDYWGQGTLVTVSS
VL: QSVLTQPASVSGSPGQSITISCTGTTSDVGGFNYVSWYQQHPGKVPKLIIFDVSNRPSSVSDRFSGSKSVNTASLTISGLQAEDEADYYCSSYTDSGSYIFGTGTKVTVL

target: T1, EGFR expressed on the surface of cells (A431, A549, MCF7 and other EGFR-expressing cell lines) (human, UniProt P00533 25-1210); test: cell-based or functional assay

IC50 (M), inhibition of EGF-stimulated EGFR auto-phosphorylation in A549 cells | Binder
1.1e-09 M | B1
1.05e-09 M | B2
5.6e-10 M | B3
5.1e-10 M | B4
1.1e-09 M | B5
1.1e-09 M | B6
6e-10 M | B7

target: T1, EGFR expressed on the surface of cells …; test: cell-based or functional assay; remark: another data set of the same source

IC50 (M), inhibition of EGF-stimulated EGFR auto-phosphorylation in A549 cells | Binder
8.6e-10 M | B8
1.7e-10 M | B9
1.3e-09 M | B10
1.8e-10 M | B11
8.9e-10 M | B12
2.3e-10 M | B13
2.2e-10 M | B14
2e-10 M | B15
2.8e-10 M | B16

target: T1, EGFR expressed on the surface of cells …; test: flow cytometry on A431 cells (FIG. 2 legend; the same experiment as paragraph 158, printed with another rounding); A431 cells; FIG. 2 legend
Protocol: (§1) In this example, the experimental procedure was as follows: 50,000 A431 cells were aliquoted into the wells of a 96-well, v-bottom plate in 100 ul FACS Buffer (PBS+2% FBS). […] Cells were spun down, washed 1× with FACS Buffer, and then resuspended in 25 μl of antibody solution in triplicate. […] Cells were further incubated for 0.5 hr and then washed 1× with FACS Buffer. Cells were resuspended in 25 ul FACS Buffer and the median fluorescence intensity in the FL2-H channel was determined using the Intellicyt HTFC flow cytometer.
(§2) Data was analyzed and plotted in Graph Pad Prizm using non-linear regression fit. Data points are shown as the median fluorescence intensity (MFI) of positively labeled cells+/−Std Error.

EC50 | Binder
1.29 nM | B1

target: T1, EGFR expressed on the surface of cells …; test: binding of purified IgG to EGFR-expressing cell lines

binding result | Binder
binds | B17
binds | B18
binds | B19

target: T1, EGFR expressed on the surface of cells …; test: flow cytometry on A431 cells, 12-point titration, PE anti-human IgG
Protocol: as §1, §2

EC50 | Binder
0.28 nM | B10
1.3 nM | B1

target: T1, EGFR expressed on the surface of cells …; test: flow cytometry on A431 cells, blocking of biotinylated human EGF binding (competitor: Human EGF Biotinylated Fluorokine)
Protocol: Cells were finally resuspended in 25 μl FACS Buffer and the median fluorescence intensity in the FL1-H channel was determined using an Intellicyt HTFC flow cytometer. […] Data was analyzed and plotted in Graph Pad Prizm using non-linear regression fit. Data points are shown as the median fluorescence intensity (MFI)+/−Std Error.

IC50 | Binder
1.35 nM | B10
2.06 nM | B1

target: T1, EGFR expressed on the surface of cells …; test: cell-based or functional assay; remark: another data set of the same source

decrease in EGF stimulated receptor phosphorylation assay in EGFR positive cells (A431) | ADCC Reporter Bioassay (luciferase, RLU) on A431 target cells, EC50 | Binder
~10% | – | B20
~10% | – | B21
– | 0.2 nM | B10
~10% | 0.06 nM | B1
